Experimental data reported in publication PMC4361550, “Biophysical Analysis of Anopheles gambiae Leucine-Rich Repeat Proteins APL1A^1, APL1B and APL1C and Their Interaction with LRIM1” (PLoS ONE, 2015).

Molecular target: the molecule itself
Experiment: SEC; Superdex 75 (10/300), proteins at 1 mg/ml, 100 mM NaCl, 20 mM HEPES pH 7.5; apparent molecular weight against mass standards

B1: APL1B LRR domain (APL1B-LRR) (domain or fragment, Anopheles gambiae, UniProt A7URS4 21-370, looked up)
chain: GQLSYKSMHLTPFTLSALLASFHKVEVLNLNGLQIEEIDTNAFAYAHTIQKLYMRFNVIRYLPPHVFQNVPLLTVLMLDRNDLSSLPPGIFHNTPKLTMLSMSNNNLERIEDDTFQATTSLQNLQLSSNRLTHVDLALIPSLFHVNVSYNLLSTLAIPIAVEELDASHNSINVVRGPVNVELTILKLQHNNLTDTAWLLNYPGLTDVDLSYNQLEIITIHHFVTMQRLERLHVSNNRLVAFDLYGRPIPTLKVLDLSHNHLMWVEHNQAQFDKLQYLYLDHNSIVTLKLSTSHTIKNLTLSHNDWDCNSLRALFRNVARPVVDDADQYCKIDYHLEHGLCCKESDKPYLD
modifications: N-linked glycosylation (predicted at Asn166, Asn211, Asn317; N-acetylglucosamine resolved at Asn166)
notes: APL1B of Anopheles gambiae, allele from strain G3, LRR domain; cloned as residues 1-370 with its signal peptide; the crystallized protein comprises APL1B 21-370 and a C-terminal 6xHis tag; Model in PDB 4XGO holds residues 25-364 (chain A) and 27-364 (chain B); source: T. ni cells (baculovirus, Bac-to-Bac), purified (Talon, MonoS, SEC); not shown: 6xHis, C-terminal, kept
stoichiometry N: 2
